Data: the DeepSol protein solubility set

Test: soluble on expression in E. coli; label from the status in PepcDB or PDB records

Sequence | soluble on expression in E. coli
MKQEFVAAIEIDGTGRIHVTPGESQFPYIYREAMEVSWNESTRSLHSPVPREWSYAQWLQQIFAAASEQGVKLVLGPNTRWVNVPNELRAELTHAAAA | soluble
MKQINDVSFLLDKRLVVLIEHQSTINENLPYRLLEYITRIYEKIVDKEKKYQKNLVKIPKPEFIVLYNGADPYPDYTELKLSDAFMDIEGLKLTGIDKIPLELIVPVYNINQGHNPEILKKCESLYGYSFFISKIREYQTQGLTLEELITPVIEYCIKNNILKDYLEAHASEVINMIFGEYDREMDIAVNRREAREEGREEGFKEGKLIIAKNLLSEGSTPEFVQRITGLTLDEIEEIGL | not soluble
MKQQDNPLIEQFLDALWLERNLAENTLASYRLDLHALVGWLTHHNSDLLRASPQDLQSFLAERIEGGYKATSSARLLSAMRRLFQYLYREKLREDDPTALLSSPKLPQRLPKDLSEAQVDALLNSPNVDIPLELRDKAMLEVLYATGLRVSELVGLTISDVSLRQGVVRVIGKGNKERLVPLGEEAVYWIENYMEHGRPWLVNGASLDVLFPSNRSQQMTRQTFWHRIKHYAILAGIDSERLSPHVLRHAFATHLLNHGADLRVVQMLLGHSDLSTTQIYTHVATERLRQLHQQHHPRA | not soluble
MKQVCVLGNGQLGRMLRQAGEPLGIAVWPVGLDAEPTAVPVQQSVITAEIERWPETALTRELARHPAFVNRDVFPIIADRLTQKQLFDKLGLATAPWQLLTSTDEWSGIFDRLGELAIIKRRVGGYDGRGQWRLRADETGQLPDDCYGECIVERGIHFSGEVSLVGARAHDGSTVFYPLTHNLHQDGILRTSVAFPQANAEQQEQAESMLSAIMQALNYVGVMAMECFITPEGLLINELAPRVHNSGHWTQNGASISQFELHLRAITGLPLPAPVINAPSVMINLIGSELNYDWLKLPLVHLHWYDKAVRPGRKVGHLNLTDSDTSRLSATLEALSPLLPGEYASGIIWAQSKLK | not soluble
MKRAVVVFSGGQDSTTCLVQALQQYDEVHCVTFDYGQRHRAEIDVARELALKLGARAHKVLDVTLLNELAVSSLTRDSIPVPDYEPEADGIPNTFVPGRNILFLTLAAIYAYQVKAEAVITGVCETDFSGYPDCRDEFVKALNHAVSLGMAKDIRFETPLMWIDKAETWALADYYGKLDLVRNETLTCYNGIKGDGCGHCAACNLRANGLNHYLADKPTVMAAMKQKTGLR | not soluble
MKRDGHTHTEFCPHGTHDDVEEMVLKAIELDFDEYSIVEHAPLSSEFMKNTAGDKEAVTTASMAMSDLPYYFKKMNHIKKKYASDLLIHIGFEVDYLIGYEDFTRDFLNEYGPQTDDGVLSLHFLEGQGGFRSIDFSAEDYNEGIVQFYGGFEQAQLAYLEGVKQSIEADLGLFKPRRMGHISLCQKFQQFFGEDTSDFSEEVMEKFRVILALVKKRDYELDFNTAGLFKPLCGETYPPKKIVTLASELQIPFVYGSDSHGVQDIGRGYSTYCQKLEHHHHHH | soluble
MKRGTITIDGKGNVHIPSTPVWMSACEIADLFGAFSGKVSVQIKTIFKEGLLMETEAMRTIQSGQGFIDLYGIEMITMLSFRIATPQAKTLRRWIIDRLSGKNSSSSPLIVCYTLGKRYN | not soluble
MKRQRVVVKIGSSSLTDPKGGLCHDKLFDHVEAIAYLKQLGHDVILITSGAVAAGFGPLGYPARPTTIAGKQAAAAVGQSLLMQAYSSAFAQFGFTAAQLLLTRSDFYSRERFRNLFATITTLLENGAVPIINENDSVSIEELTFGDNDMLSALVAGFLHADALILLTDINGLYDANPKTNPQAKKYAFLPEITDEMIEAAGGIGSAVGTGGMRSKLLAARKALSFGVSVFIGAGSGKEKLADILAGKGDGTYIGAPFPKQMQMRKQWIAYHAPVAGTVTVDSGAEEALLMRGKSLLPAGVTAVSGDFHAMDVVDVVNEKGITIGRGQVYYAAADLEKVKGLPSEEARQYSYLHRPEVIHRDNWVTLRKESVSK | not soluble
MKRTGILLVNLGTPKDSSKTEVRKYLKTFLSDRRVIKIHPIIWKPILNGIILNIRPKKSAKLYQKICTENGFPLLEYTEKQMENLKNICPEVEVTIGMSYSEPSIETALDTLLSKEIEELNVIPMYPQYSGTTVGSVFDSVMNYFIKSDRIVDIKFIRSFYNNPQYIDYFSKKINEALNESPIDAIVFSYHGIPMSYVKDGDNYPKECTK | not soluble
MKRVGKQTWVFDDGVYIQAAAAAVGPLEADGPLGSYFDVCHRDLYCGEATWELAERRLMREAVDCCLQKAGVSAEEVDLLLAGDLLNQNATSNYVARELPIPFLCLFGACSTSMQTLAAAAAFVAGGLADRALAATSSHNATAERQFRYPTELGVQKPKTATFTVTGAGAALVGRAPGRWRVRAATIGKVVDAGLKNPLDMGAAMAPAAADTIEQHFRDLGVSPGDYDLIVTGDLSRVGSVIVRELLAESGYDVTDVYNDCGLMIYRPDQKVFAGGSGCACSAVVTYGYLLQELARGTFRRLFVVATGALLSQTMVQQKQSIPAIAHGVVIEAAGQEPDLPP | not soluble
MKRVVVTGIGMINALGLDKESSFKAICNGESGVNKITLFDATDFPVQIAAEVKNFDPLEVVDGKEVKKIDRFIQLGIKAAREAMQDAGFSEELDKEEFGIVSASGIGGLPNIEKNSIICSERGPRKISPFFIPSALVNMLGGLISIEHGLKGPNISCVTACAAGTHAIGEAYKSIALGNAKKMLVIGAEAAICPVGIGGFASMKALSTRNEDPQHASRPFDKERDGFVMGEGAGALVFEEYEEAKKRGATIYAELIGFGESADAHHITSPTLDGPLRAMKKALNMAGNPKVDYINAHGTSTPVNDKNETAAIKELFGNNIPLISSTKGQTGHCLGAAGAIEAVVSVMVLRDGVVPPTINQLVKDDECDLDYIPNISRKVDLKVVMSNSFGFGGTNGCVVFKKVD | soluble
MKRYVFMLSDGTGITAETLGNSLITQFENIQFEKITIPYIDSTHRAESVVLRINQCFSEQGTKPLVFMTLVDPEIRQAIKKAHACVFDLFSIFIGPLENELEEKSSYTVGRTHGVANVKSYSHRIEAIDFALSHDDGIKTRGYDKADIILIGVSRCGKTPSCLYMALQYGILAANYPFTEEDLVGFRLPEVLRPYKQKLFGLTIDAQRLQQIRSERRPNSKYASAEQCRLEVTEVEAMYQRENIPYINSTKYSIEEISTKVLAIAGLQRKILEHHHHHH | not soluble
MKSAEQWIDELQLESHPEGGFYRETIREVLKDGRRAPFSSIYFLLTDDNISHFHRIDADEVWYYHAGDSLTIHMINPDGEYTTATLGTDIQNGDVLQYVVPKGTIFASSIEFSNTYSLVGCMCQPAFEFKQFELFKQSELITQYPHLKSVIEKYALK | soluble
MKSFDGHNDLLARLWLSEHPDPVGMFLKGQLPGHLDFARCQQAQFAGGLFAIFVPPFDYVKNNHPYKLRKSAQAGFDTQDIHHIVFTQLDYIKQIASRSDRRIQICLSVEDIQFCLQQDIMAVVIHLEGAEVLDSEFGVLEQLHARGLRSIGPLWNLPNQFGHGLQASFPHSPDTGLGLTDQGKALIQLCSEKRIMIDVSHMNEKAFWDTAKISELPLIATHSNVHQLCPQPRNLTDAQLEAIQASQGCVGVNFDTAFLRPDGQRNAATSLDLILEHIEYLMHKLGEDQVAFGSDFDGGFISDHLKDVTGLIHLQQAFERRGYSQALQEKLCHQNWLSALQRVWHPAC | not soluble
MKSFIKIHKQDNVLLALRYIQKGERLHAYGVSIEVKDDIKRGHKIALQSIKENDSIVKYGFPIGHASQDISIGEHIHVHNTKTNLSDIQLYSYTPRFDENPYSNENRTFKGFRRENGDAGVRNELWIVPTVGCVNGIAEKMLQRFVRETGDIAPFDNVLVLKHQYGCSQLGDDHENTKQILLNAIRHPNAGGVLVLGLGCENNELARMKEALQDVNLKRVKFLESQSVTDEMEAGVALLKEIHEAAKGDKREDIPLSELKIGLKCGGSDGFSGITANPLLGRFSDYLIAQGGSTVLTEVPEMFGAETILMQRAANEEVFHKIVDLINDFKQYFIKHDQPVYENPSPGNKAGGISTLEDKSLGCTQKAGISPVTDVLKYGEVLKTKGLTLLSAPGNDLIASSALAAAGCQIVLFTTGRGTPFGTFVPTVKVATNTELYEAKPHWIDFNAGLLAEDDVHEEYVLREFIHYMIEVASGQLVNHEKNDFKELAIFKSGVTL | not soluble
MKSLSYKRIYKSQEYLATLGTIEYRSLFGSYSLTVDDTVFAMVSDGELYLRACEQSAQYCVKHPPVWLTYKKCGRSVTLNYYRVDESLWRNQLKLVRLSKYSLDAALKEKSTRNTRERLKDLPNMSFHLEAILGEVGRLAP | not soluble
MKSMSEYLNLLKEAIQNVVDGGWHETKRKGNTGIGKTFEDLLEKEEDNLDAPDFHDIEIKTHETAAKSLLTLFTKSPTNPRGANTMLRNRYGKKDEYGNNILHQTVSGNRKTNSNSYNYDFKIDIDWESQVVRLEVFDKQDIMIDNSVYWSFDSLQNQLDKKLKYIAVISAESKIENEKKYYKYNSANLFTDLTVQSLCRGIENGDIKVDIRIGAYHSGKKKGKTHDHGTAFRINMEKLLEYGEVKVIV | soluble
MKSMTGFGKKTIQNENYQLDIEVKSVNQRFLDIQLRMPKELNAYELVIRQVIKRTLKRGRVEVYVNLQKIGNNQKEVRVQWDLIDQLLTSVDQHLKEKYPEATFDAGDTVNHLLKQNDFVEIVEAEIVDQTFEPFLVQAFEAAIASLDQSRVQEGTQIKQVLLDYVAVLTQSIQELQAFVGVFEQEYRQRFEAKLNEWLGSQVDETRLLTEMAILLEKGDIHEELDRLDIHIDKLHQLLDETEPVGRELDFLIQEMNREVNTIGSKSSPIEIKNSVVQMKTTLEKIREQIQNVE | not soluble
MKSTDNSKPVPFFRGKLKFFQPKEHKISVDLVLFLSKIKPPKRNYRIIDLGAGFGFLSITLAKKYGVKVVAFEYDERMVKLLRKNVKLNGVEHLVEVVEGDIKEIEKHLSRGSFNLVVSNPPFYPINYSPNPEPYHFEVYATLKDFVRASSYLLKDGGELYLLSPCFRLYELTEYLSNFNLPLRKLSLIYPTPLKRARLAITVSVKNVKGQLECDKPLIINKENGEYTEEVKQLLENFL | soluble
MKSVKNSWNSSIKDGEYQRKESQFRNWITTDGSAGITGRGGFQAEAGRYHLYVSLACPWAHRTLIFRQLKGLEDLITVSVVHPDMHENGWSFKHDEESAKLYGTTGDNLYDGKFISEKYLAQDPDYSGVNSVPVLWDKKDKVIVNNESSEIIRMFNSAFNDITGNTLDFYPEHLREKIDHENELVYHKINNGVYKTGFATTQEAYDKNVNELFAALEQIDEKLSKQRYLTGDEITEADWRLWATLVRFDSVYHTHFKCNLKLIKEFSNIYNYMLELFQVPNVAKTVNEAHIKRHYYASHVAINPYGIVPIAHQQDWTAQHNRDKQFS | not soluble
MKSVQDALYNWLTIHIVAKARPHDAAARDTASFFRAILENDFGVTAVDAVKDETNGQYIVEYVRGGETRAACFPLELAEAMWRQIEAEPEKYG | not soluble
MKSYIVIGAGILGASTAYHLAKEGASVMIIDRGDKGQATDAAAGIVCPWLSQRRNQKWYRLAKGGAKFYPSLIEELESYGETETGYARVGALWLHTDEQKLEQMEERALKRREDAPEMGEIVRLHPQEAKELFPPLVGEHHALYVSGAARVNGRAVRDALMNASQKRGAAYIRGNARLLFEGSRIIGVEADGTKYAAEAVIVTAGAWAGELLEPLGIKLLVTPQKGQLIHLEHPECDTSHWPVVMPPNNQYMLAFPGSRIVIGTTHEDEAGMDIRPTAGGMHELLDKALAVAPGLSTWTYIETRVGFRPRTPGFLPIFGPLPGFSGVYIANGLGSSGLTVGPYLGKELAKLVIGLPTELDPSDYDVASAVAPIVQ | not soluble
